Reference: patent publication US20180142007A1 (AXON NEUROSCIENCE, published 2018)

T1: tau peptide 352-380 (human)
T1 construct: Synthetic peptide (EZBiolabs), numbered on tau 2N4R
T1 peptide: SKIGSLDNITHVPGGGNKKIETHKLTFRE

T2: tau peptide 256-285 (human)
T2 construct: Synthetic peptide (EZBiolabs), numbered on tau 2N4R
T2 peptide: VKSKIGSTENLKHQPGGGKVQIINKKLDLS

T3: tau peptide 282-311 (human)
T3 construct: Synthetic peptide (EZBiolabs), numbered on tau 2N4R; also called peptide derived from MTBRII
T3 peptide: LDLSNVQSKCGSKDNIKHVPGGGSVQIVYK

T4: tau peptide 314-342 (human)
T4 construct: Synthetic peptide (EZBiolabs), numbered on tau 2N4R
T4 peptide: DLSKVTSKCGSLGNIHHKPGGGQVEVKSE


What was measured:
[1] = molecular target: T5, misdisordered truncated tau 151-391/4R (human, UniProt P10636 468-708); assay: assay not named in the sentence (tau binding assay of the examples)
T5 construct: Recombinant, from clone tau40 in pET-17b, expressed in E. coli; numbered on the longest human tau isoform 2N4R (441 aa); An added start methionine is not mentioned; also called tauΔ(1-150;392-441)/4R; misdisordered tau II
T5 sequence (P10636 468-708): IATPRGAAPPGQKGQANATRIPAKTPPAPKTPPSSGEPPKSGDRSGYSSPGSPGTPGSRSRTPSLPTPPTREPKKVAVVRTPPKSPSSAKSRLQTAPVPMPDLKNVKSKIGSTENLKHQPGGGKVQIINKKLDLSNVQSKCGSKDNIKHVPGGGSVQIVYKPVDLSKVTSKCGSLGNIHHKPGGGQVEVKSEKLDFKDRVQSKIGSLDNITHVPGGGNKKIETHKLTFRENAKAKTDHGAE

[2] = molecular target: T5, misdisordered truncated tau 151-391/4R; assay: binding ELISA of IgG4 versions, plate coated with Tau 151-391/4R
[3] = molecular target: T5, misdisordered truncated tau 151-391/4R; assay: cell-based or functional assay
[4] = molecular target: T1, tau peptide 352-380; assay: direct ELISA, tau peptide coated on plate
[5] = molecular target: T2, tau peptide 256-285; assay: direct ELISA, tau peptide coated on plate
[6] = molecular target: T3, tau peptide 282-311; assay: direct ELISA, tau peptide coated on plate
[7] = molecular target: T4, tau peptide 314-342; assay: direct ELISA, tau peptide coated on plate

| Binder | binding result [4] | binding result [6] | binding result [7] | also measured |
| --- | --- | --- | --- | --- |
| AX038, humanized DC8E8 RHM/RKB (isotype not stated where tested) (antibody, V domains shown, also called RHM version) VH: QVQLVQSGAEVKKPGSSVKVSCKASGYIFSDYVISWVRQAPGQGLEWMGEIFPRSGSTYYNEKFKGRVTITADKSTSTAYMELSSLRSEDTAVYYCARDYYGTSFAMDYWGQGTLVTVSS VL: DIVMSQSPLSLPVTPGEPASISCKSSQSLLNSRTRKNYLAWYLQKPGQSPQLLIYWASTRESGVPDRFTGSGSGTDFTLKISRVEAEDVGVYYCKQSFYLRTFGQGTKVEIKR | – | – | – | binding result [1]: binds |
| AX028-IgG4, RHD heavy chain with chimeric DC8E8 kappa light chain, IgG4 isotype (antibody, V domains shown, also called AXON028-IgG4; RHD/VK) VH: QVQLVQSGAEVKKPGSSVKVSCKASGYTFSDYVISWVRQAPGQGLEWMGEIFPRSGSTYYNEKFKGRVTITADKSTSTAYMELSSLRSEDTAVYYCARDYYGTSFAMDYWGQGTLVTVSS VL: DIVMSQSPSSLAVSAGEKVTMSCKSSQSLLNSRTRKNYLAWYQQKPGQSPKLLIYWASTRESGVPDRFTGSGSGTDFTLTISSVQAEDLAVYYCKQSFYLRTFGGGTKLDIKR | – | – | – | binding result [2]: binds |
| AX037, humanized DC8E8 RHM/RKA (isotype not stated where tested) (antibody, V domains shown, also called RHM version) VH: QVQLVQSGAEVKKPGSSVKVSCKASGYIFSDYVISWVRQAPGQGLEWMGEIFPRSGSTYYNEKFKGRVTITADKSTSTAYMELSSLRSEDTAVYYCARDYYGTSFAMDYWGQGTLVTVSS VL: DIVMTQSPLSLPVTPGEPASISCKSSQSLLNSRTRKNYLAWYLQKPGQSPQLLIYWASTRESGVPDRFTGSGSGTDFTLKISRVEAEDVGVYYCKQSFYLRTFGQGTKVEIKR | – | – | – | binding result [1]: binds |
| AX001, humanized DC8E8 RHA/RKA (isotype not stated where tested) (antibody, V domains shown, also called initial humanized version) VH: QVQLVQSGAEVKKPGSSVKVSCKASGGTFSDYVISWVRQAPGQGLEWMGEIFPRSGSTYYNEKFKGRVTITADKSTSTAYMELSSLRSEDTAVYYCARDYYGTSFAMDYWGQGTLVTVSS VL: DIVMTQSPLSLPVTPGEPASISCKSSQSLLNSRTRKNYLAWYLQKPGQSPQLLIYWASTRESGVPDRFTGSGSGTDFTLKISRVEAEDVGVYYCKQSFYLRTFGQGTKVEIKR | – | – | – | fold decrease in binding affinity relative to chimeric DC8E8 [1]: 10 fold |
| AX014, humanized DC8E8 RHB/RKB (isotype not stated where tested) (antibody, 2 (a CDR)) VH: QVQLVQSGPEVKKPGSSVKVPCKASGYIFTDYVISWVKQAPGQGLEWIGEIFPRSGSTYYNEKFKGKATLTADKSTSTAYMELSSLRSEDTAVYFCARDYYGTSFAMDYWGQGTLVTVSS light: DIVMSQSPLSLPVTPGEPASISCKSSQSLLNSRTRKNYLAWYLQKPGQSPQLLIYWASTRESGVPDRFTGSGSGTDFTLKISRVEAEDVGVYYCKQSFYLRTFGQGTKVEIKRTVAAPSVFIFPPSDEQLKSGTASVVCLLNNFYPREAKVQWKVDNALQSGNSQESVTEQDSKDSTYSLSSTLTLSKADYEKHKVYACEVTHQGLSSPVTKSFNRGEC | – | – | – | binding result [1]: binds |
| AX029-IgG4, RHE heavy chain with chimeric DC8E8 kappa light chain, IgG4 isotype (antibody, V domains shown, also called AXON029-IgG4; RHE/VK) VH: QVQLVQSGAEVKKPGSSVKVSCKASGGIFSDYVISWVRQAPGQGLEWMGEIFPRSGSTYYNEKFKGRVTITADKSTSTAYMELSSLRSEDTAVYYCARDYYGTSFAMDYWGQGTLVTVSS VL: DIVMSQSPSSLAVSAGEKVTMSCKSSQSLLNSRTRKNYLAWYQQKPGQSPKLLIYWASTRESGVPDRFTGSGSGTDFTLTISSVQAEDLAVYYCKQSFYLRTFGGGTKLDIKR | – | – | – | binding result [2]: binds |
| AX026-IgG4, RHB heavy chain with chimeric DC8E8 kappa light chain, IgG4 isotype (antibody, V domains shown, also called AXON026-IgG4; RHB/VK) VH: QVQLVQSGPEVKKPGSSVKVPCKASGYIFTDYVISWVKQAPGQGLEWIGEIFPRSGSTYYNEKFKGKATLTADKSTSTAYMELSSLRSEDTAVYFCARDYYGTSFAMDYWGQGTLVTVSS VL: DIVMSQSPSSLAVSAGEKVTMSCKSSQSLLNSRTRKNYLAWYQQKPGQSPKLLIYWASTRESGVPDRFTGSGSGTDFTLTISSVQAEDLAVYYCKQSFYLRTFGGGTKLDIKR | – | – | – | binding result [2]: binds |
| AX004-IgG1, humanized DC8E8 RHD/RKA, IgG1 isotype (antibody, Expressed in Expi293, purified on Protein A and by size exclusion) heavy: not shown light: DIVMTQSPLSLPVTPGEPASISCKSSQSLLNSRTRKNYLAWYLQKPGQSPQLLIYWASTRESGVPDRFTGSGSGTDFTLKISRVEAEDVGVYYCKQSFYLRTFGQGTKVEIKRTVAAPSVFIFPPSDEQLKSGTASVVCLLNNFYPREAKVQWKVDNALQSGNSQESVTEQDSKDSTYSLSSTLTLSKADYEKHKVYACEVTHQGLSSPVTKSFNRGEC | binds | binds | binds | amount of fibrillized pathological tau forms (Thioflavin T fluorescence), antibody at 10 uM [3]: < 3%; binding result [5]: binds |
| AX004-IgG4, humanized DC8E8 RHD/RKA, IgG4 isotype (antibody, Expressed in Expi293; also called AXON004-IgG4) heavy: not shown light: DIVMTQSPLSLPVTPGEPASISCKSSQSLLNSRTRKNYLAWYLQKPGQSPQLLIYWASTRESGVPDRFTGSGSGTDFTLKISRVEAEDVGVYYCKQSFYLRTFGQGTKVEIKRTVAAPSVFIFPPSDEQLKSGTASVVCLLNNFYPREAKVQWKVDNALQSGNSQESVTEQDSKDSTYSLSSTLTLSKADYEKHKVYACEVTHQGLSSPVTKSFNRGEC | binds | binds | binds | amount of fibrillized pathological tau forms (Thioflavin T fluorescence), antibody at 10 uM [3]: < 3%; binding result [5]: binds |
| AX005-IgG1, humanized DC8E8 RHE/RKA, IgG1 isotype (antibody, Expressed in Expi293, purified on Protein A and by size exclusion) heavy: not shown light: DIVMTQSPLSLPVTPGEPASISCKSSQSLLNSRTRKNYLAWYLQKPGQSPQLLIYWASTRESGVPDRFTGSGSGTDFTLKISRVEAEDVGVYYCKQSFYLRTFGQGTKVEIKRTVAAPSVFIFPPSDEQLKSGTASVVCLLNNFYPREAKVQWKVDNALQSGNSQESVTEQDSKDSTYSLSSTLTLSKADYEKHKVYACEVTHQGLSSPVTKSFNRGEC | binds | binds | binds | – |
| AX014-IgG4, humanized DC8E8 RHB/RKB, IgG4 isotype (antibody, also called AXON014-IgG4) heavy: not shown light: DIVMSQSPLSLPVTPGEPASISCKSSQSLLNSRTRKNYLAWYLQKPGQSPQLLIYWASTRESGVPDRFTGSGSGTDFTLKISRVEAEDVGVYYCKQSFYLRTFGQGTKVEIKRTVAAPSVFIFPPSDEQLKSGTASVVCLLNNFYPREAKVQWKVDNALQSGNSQESVTEQDSKDSTYSLSSTLTLSKADYEKHKVYACEVTHQGLSSPVTKSFNRGEC | – | – | – | binding result [2]: binds |
| AX016-IgG1, humanized DC8E8 RHD/RKB, IgG1 isotype (antibody, Expressed in Expi293, purified on Protein A and by size exclusion) heavy: not shown light: DIVMSQSPLSLPVTPGEPASISCKSSQSLLNSRTRKNYLAWYLQKPGQSPQLLIYWASTRESGVPDRFTGSGSGTDFTLKISRVEAEDVGVYYCKQSFYLRTFGQGTKVEIKRTVAAPSVFIFPPSDEQLKSGTASVVCLLNNFYPREAKVQWKVDNALQSGNSQESVTEQDSKDSTYSLSSTLTLSKADYEKHKVYACEVTHQGLSSPVTKSFNRGEC | binds | binds | binds | amount of fibrillized pathological tau forms (Thioflavin T fluorescence), antibody at 10 uM [3]: < 3%; binding result [5]: binds |
| AX002-IgG4, humanized DC8E8 RHB/RKA, IgG4 isotype (antibody, also called AXON002-IgG4) heavy: not shown light: DIVMTQSPLSLPVTPGEPASISCKSSQSLLNSRTRKNYLAWYLQKPGQSPQLLIYWASTRESGVPDRFTGSGSGTDFTLKISRVEAEDVGVYYCKQSFYLRTFGQGTKVEIKRTVAAPSVFIFPPSDEQLKSGTASVVCLLNNFYPREAKVQWKVDNALQSGNSQESVTEQDSKDSTYSLSSTLTLSKADYEKHKVYACEVTHQGLSSPVTKSFNRGEC | – | – | – | binding result [2]: binds |

More lines, main results first:

| binding result [4] | binding result [6] | binding result [7] | Binder | also measured |
| --- | --- | --- | --- | --- |
| binds | binds | binds | AX017-IgG4, humanized DC8E8 RHE/RKB, IgG4 isotype (antibody, Expressed in Expi293; also called AXON017-IgG4) heavy: not shown light: DIVMSQSPLSLPVTPGEPASISCKSSQSLLNSRTRKNYLAWYLQKPGQSPQLLIYWASTRESGVPDRFTGSGSGTDFTLKISRVEAEDVGVYYCKQSFYLRTFGQGTKVEIKRTVAAPSVFIFPPSDEQLKSGTASVVCLLNNFYPREAKVQWKVDNALQSGNSQESVTEQDSKDSTYSLSSTLTLSKADYEKHKVYACEVTHQGLSSPVTKSFNRGEC | – |
| binds | binds | binds | AX016-IgG4, humanized DC8E8 RHD/RKB, IgG4 isotype (antibody, Expressed in Expi293; also called AXON016-IgG4) heavy: not shown light: DIVMSQSPLSLPVTPGEPASISCKSSQSLLNSRTRKNYLAWYLQKPGQSPQLLIYWASTRESGVPDRFTGSGSGTDFTLKISRVEAEDVGVYYCKQSFYLRTFGQGTKVEIKRTVAAPSVFIFPPSDEQLKSGTASVVCLLNNFYPREAKVQWKVDNALQSGNSQESVTEQDSKDSTYSLSSTLTLSKADYEKHKVYACEVTHQGLSSPVTKSFNRGEC | amount of fibrillized pathological tau forms (Thioflavin T fluorescence), antibody at 10 uM [3]: < 3%; binding result [5]: binds |
| binds | binds | binds | AX017-IgG1, humanized DC8E8 RHE/RKB, IgG1 isotype (antibody, Expressed in Expi293, purified on Protein A and by size exclusion) heavy: not shown light: DIVMSQSPLSLPVTPGEPASISCKSSQSLLNSRTRKNYLAWYLQKPGQSPQLLIYWASTRESGVPDRFTGSGSGTDFTLKISRVEAEDVGVYYCKQSFYLRTFGQGTKVEIKRTVAAPSVFIFPPSDEQLKSGTASVVCLLNNFYPREAKVQWKVDNALQSGNSQESVTEQDSKDSTYSLSSTLTLSKADYEKHKVYACEVTHQGLSSPVTKSFNRGEC | – |
| binds | binds | binds | AX005-IgG4, humanized DC8E8 RHE/RKA, IgG4 isotype (antibody, Expressed in Expi293; also called AXON005-IgG4) heavy: not shown light: DIVMTQSPLSLPVTPGEPASISCKSSQSLLNSRTRKNYLAWYLQKPGQSPQLLIYWASTRESGVPDRFTGSGSGTDFTLKISRVEAEDVGVYYCKQSFYLRTFGQGTKVEIKRTVAAPSVFIFPPSDEQLKSGTASVVCLLNNFYPREAKVQWKVDNALQSGNSQESVTEQDSKDSTYSLSSTLTLSKADYEKHKVYACEVTHQGLSSPVTKSFNRGEC | – |
